{
  "source": "patent US20090311283A1",
  "key": {"[1]": {"molecular_target": "HLA-A*0301 (human)", "assay": "competitive inhibition of 125I-labelled probe peptide binding to purified HLA; relative to standard peptide"}, "[2]": {"molecular_target": "HLA-A*1101 (human)", "assay": "competitive inhibition of 125I-labelled probe peptide binding to purified HLA; relative to standard peptide"}, "[3]": {"molecular_target": "HLA-A*3101 (human)", "assay": "competitive inhibition of 125I-labelled probe peptide binding to purified HLA; relative to standard peptide"}, "[4]": {"molecular_target": "HLA-A*3301 (human)", "assay": "competitive inhibition of 125I-labelled probe peptide binding to purified HLA; relative to standard peptide"}, "[5]": {"molecular_target": "HLA-A*3101 (Human)", "conditions": "remark: other sources report otherwise"}, "[6]": {"molecular_target": "HLA-B*0702 (Human)", "assay": "competition with 125I-labelled probe peptide for purified HLA, gel filtration"}, "[7]": {"molecular_target": "HLA-B*5101 (Human)", "assay": "competition with 125I-labelled probe peptide for purified HLA, gel filtration"}, "[8]": {"molecular_target": "HLA-B*5301 (Human)", "assay": "competition with 125I-labelled probe peptide for purified HLA, gel filtration"}, "[9]": {"molecular_target": "HLA-B*5401 (Human)", "assay": "competition with 125I-labelled probe peptide for purified HLA, gel filtration"}, "[10]": {"molecular_target": "HLA-A*1101 (human)"}, "[11]": {"molecular_target": "HLA-A*3301 (human)"}, "[12]": {"molecular_target": "HLA-A*0301 (human)", "assay": "competition with 125I probe peptide on purified HLA-A*0301; relative to standard peptide 941.12"}, "[13]": {"molecular_target": "HLA-A*3101 (human)", "assay": "competition with 125I probe peptide on purified HLA-A*3101; relative to standard peptide 941.12"}, "[14]": {"molecular_target": "HLA-A*6801 (human)", "assay": "competition with 125I probe peptide on purified HLA-A*6801; relative to standard peptide 941.12"}, "[15]": {"molecular_target": "HLA-A*0301 (human)", "assay": "inhibition of binding of a 125I-labelled probe peptide to purified HLA-A*0301, gel filtration; relative to the standard peptide"}, "[16]": {"molecular_target": "HLA-B*3501 (Human)", "assay": "competition with 125I-labelled probe peptide for purified HLA, gel filtration"}, "[17]": {"molecular_target": "HLA-A*0301 (human)", "assay": "competition with 125I-labelled probe peptide for purified HLA-A*0301, gel filtration; relative binding against the standard peptide", "conditions": "scale: ratio"}, "[18]": {"molecular_target": "HLA-A*3101 (human)", "assay": "competition with 125I-labelled probe peptide for purified HLA-A*3101, gel filtration; ratio to standard peptide 941.12"}, "[19]": {"molecular_target": "HLA-A*6801 (human)", "assay": "competition with 125I-labelled probe peptide for purified HLA-A*6801, gel filtration; ratio to standard peptide 941.12"}},
  "note": "Where two headings read alike, the source gives them in different places.",
  "data": [
    {"binder": "NLEDPASR (modifications not checked)", "note": "[HBV NUC 75 peptide NLEDPASR]", "values": [
      {"measurement": "binding affinity ratio (IC50 of standard peptide / IC50 of test peptide)", "setting": "[1]", "result": -0.0002},
      {"measurement": "binding affinity ratio (IC50 of standard peptide / IC50 of test peptide)", "setting": "[2]", "result": -0.0002},
      {"measurement": "binding affinity ratio (IC50 of standard peptide / IC50 of test peptide)", "setting": "[3]", "result": -0.0009},
      {"measurement": "binding affinity ratio (IC50 of standard peptide / IC50 of test peptide)", "setting": "[4]", "result": -0.0009}
    ]},
    {"binder": "FVLGGCRHK (modifications not checked)", "note": "[Peptide 1.0219 (HBV X 1550, …)]", "values": [
      {"measurement": "IC50", "setting": "[5]", "result": 1500, "unit": "nM"}
    ]},
    {"binder": "NPLGFFPDHQL (modifications not checked)", "note": "[HBV ENV 9 peptide …]", "values": [
      {"measurement": "binding affinity ratio (IC50 of standard peptide / IC50 of test peptide)", "setting": "[6]", "result": 0.0012},
      {"measurement": "binding affinity ratio (IC50 of standard peptide / IC50 of test peptide)", "setting": "[7]", "result": 0.0001},
      {"measurement": "binding affinity ratio (IC50 of standard peptide / IC50 of test peptide)", "setting": "[8]", "result": 0.0028},
      {"measurement": "binding affinity ratio (IC50 of standard peptide / IC50 of test peptide)", "setting": "[9]", "result": 0.0001}
    ]},
    {"binder": "SALNPADDPSR (modifications not checked)", "note": "[HBV POL 771 peptide …]", "values": [
      {"measurement": "binding affinity ratio (IC50 standard peptide / IC50 test peptide)", "setting": "[10]", "result": -0.0003},
      {"measurement": "binding affinity ratio (IC50 standard peptide / IC50 test peptide)", "setting": "[11]", "result": -0.0023},
      {"measurement": "binding affinity ratio (IC50 standard peptide / IC50 test peptide)", "setting": "[12]", "result": -0.0004},
      {"measurement": "binding affinity ratio (IC50 standard peptide / IC50 test peptide)", "setting": "[13]", "result": -0.0012},
      {"measurement": "binding affinity ratio (IC50 standard peptide / IC50 test peptide)", "setting": "[14]", "result": 0.0003},
      {"measurement": "binding affinity ratio (IC50 of standard peptide / IC50 of test peptide)", "setting": "[15]", "result": -0.0004}
    ]},
    {"binder": "SPEHCSPHHTA (modifications not checked)", "note": "[HBV NUC 44 peptide …]", "values": [
      {"measurement": "binding affinity ratio (IC50 of standard peptide / IC50 of test peptide)", "setting": "[16]", "result": 0.0001},
      {"measurement": "binding affinity ratio (IC50 of standard peptide / IC50 of test peptide)", "setting": "[7]", "result": 0.0001},
      {"measurement": "binding affinity ratio (IC50 of standard peptide / IC50 of test peptide)", "setting": "[9]", "result": 0.0011}
    ]},
    {"binder": "GIHLNPNKTK (modifications not checked)", "note": "[HBV POL 567 peptide …]", "values": [
      {"measurement": "binding affinity ratio (IC50 of standard peptide / IC50 of test peptide)", "setting": "[1]", "result": 0.0025},
      {"measurement": "binding affinity ratio (IC50 of standard peptide / IC50 of test peptide)", "setting": "[2]", "result": 0.0011},
      {"measurement": "binding affinity ratio (IC50 of standard peptide / IC50 of test peptide)", "setting": "[3]", "result": 0.0009},
      {"measurement": "binding affinity ratio (IC50 of standard peptide / IC50 of test peptide)", "setting": "[4]", "result": 0.0009}
    ]},
    {"binder": "TDNSVVLSRK (modifications not checked)", "note": "[HBV POL 736 peptide …]", "values": [
      {"measurement": "binding affinity ratio (relative to standard peptide)", "setting": "[17]", "result": 0.0006}
    ]},
    {"binder": "SSAGPCALRF (modifications not checked)", "note": "[HBV X 64 peptide …]", "values": [
      {"measurement": "binding affinity ratio (IC50 of standard peptide / IC50 of test peptide)", "setting": "[15]", "result": -0.0003}
    ]},
    {"binder": "KAGILYKR (modifications not checked)", "note": "[HBV POL 153 peptide KAGILYKR]", "values": [
      {"measurement": "binding affinity ratio (IC50 of standard peptide / IC50 of test peptide)", "setting": "[2]", "result": -0.0002},
      {"measurement": "binding affinity ratio (IC50 of standard peptide / IC50 of test peptide)", "setting": "[3]", "result": 0.0015},
      {"measurement": "binding affinity ratio (IC50 of standard peptide / IC50 of test peptide)", "setting": "[4]", "result": -0.0009}
    ]},
    {"binder": "PLSYQHFR (modifications not checked)", "note": "[HBV POL 2 peptide PLSYQHFR]", "values": [
      {"measurement": "binding affinity ratio (IC50 of standard peptide / IC50 of test peptide)", "setting": "[11]", "result": -0.0009},
      {"measurement": "binding affinity ratio (IC50 of standard peptide / IC50 of test peptide)", "setting": "[18]", "result": -0.0009},
      {"measurement": "binding affinity ratio (IC50 of standard peptide / IC50 of test peptide)", "setting": "[19]", "result": 0.0001}
    ]},
    {"binder": "GMDIDPYK (modifications not checked)", "note": "[HBV NUC 29 peptide GMDIDPYK]", "values": [
      {"measurement": "binding affinity ratio (IC50 of standard peptide / IC50 of test peptide)", "setting": "[1]", "result": 0.0006},
      {"measurement": "binding affinity ratio (IC50 of standard peptide / IC50 of test peptide)", "setting": "[3]", "result": -0.0009},
      {"measurement": "binding affinity ratio (IC50 of standard peptide / IC50 of test peptide)", "setting": "[4]", "result": -0.0009}
    ]},
    {"binder": "SVVLSRKY (modifications not checked)", "note": "[HBV POL 739 peptide SVVLSRKY]", "values": [
      {"measurement": "binding affinity ratio (relative to standard peptide)", "setting": "[17]", "result": -0.0002}
    ]},
    {"binder": "LTVNEKRR (modifications not checked)", "note": "[HBV POL 99 peptide LTVNEKRR]", "values": [
      {"measurement": "binding affinity ratio (IC50 of standard peptide / IC50 of test peptide)", "setting": "[1]", "result": -0.0002},
      {"measurement": "binding affinity ratio (IC50 of standard peptide / IC50 of test peptide)", "setting": "[2]", "result": -0.0002},
      {"measurement": "binding affinity ratio (IC50 of standard peptide / IC50 of test peptide)", "setting": "[3]", "result": -0.0009},
      {"measurement": "binding affinity ratio (IC50 of standard peptide / IC50 of test peptide)", "setting": "[4]", "result": -0.0009}
    ]},
    {"binder": "SAGPCALRF (modifications not checked)", "note": "[HBV X 65 peptide …]", "values": [
      {"measurement": "binding affinity ratio (IC50 of standard peptide / IC50 of test peptide)", "setting": "[15]", "result": -0.0003}
    ]},
    {"binder": "RTPSPRRR (modifications not checked)", "note": "[HBV NUC 188 peptide RTPSPRRR]", "values": [
      {"measurement": "binding affinity ratio (IC50 standard peptide / IC50 test peptide)", "setting": "[10]", "result": -0.0002},
      {"measurement": "binding affinity ratio (IC50 standard peptide / IC50 test peptide)", "setting": "[11]", "result": 0.0014},
      {"measurement": "binding affinity ratio (IC50 standard peptide / IC50 test peptide)", "setting": "[12]", "result": -0.0002},
      {"measurement": "binding affinity ratio (IC50 standard peptide / IC50 test peptide)", "setting": "[13]", "result": 0.0033},
      {"measurement": "binding affinity ratio (IC50 standard peptide / IC50 test peptide)", "setting": "[14]", "result": 0.0002},
      {"measurement": "binding affinity ratio (IC50 of standard peptide / IC50 of test peptide)", "setting": "[15]", "result": -0.0002}
    ]}
  ]
}
